The source of these data is article doi:10.1101/2025.03.12.642685.

Assay [1] addresses PorK (P. gingivalis (endogenous in P. gingivalis W50 EK18)). The experiment in a line: cryo-EM structure.
In assay [2] the target is PorN (P. gingivalis (endogenous in P. gingivalis W50 EK18)). The experiment in a line: cryo-EM structure.

What is called stoichiometry N is a count of units in the complex or per binding partner.

Values joined by “and” are separate entries in the source; they are usually repeats but may differ in a detail not shown here. Equal entries are not always repeated.

Regarding PorK (natural protein), the stoichiometry N in assay [1] is 31 to 35 (2×) and 33.

Turning to PorN (natural protein), the stoichiometry N in assay [2] is 31 to 35 (2×) and 33.
